The values below are quoted from earlier work in article PMC4336166.

By Kd is commonly meant a measure of binding affinity in units of concentration.

The target in this series is clathrin coat (Homo sapiens) (UniProt Q00610).
Sequence of UniProt Q00610 (Q00610 2-1675): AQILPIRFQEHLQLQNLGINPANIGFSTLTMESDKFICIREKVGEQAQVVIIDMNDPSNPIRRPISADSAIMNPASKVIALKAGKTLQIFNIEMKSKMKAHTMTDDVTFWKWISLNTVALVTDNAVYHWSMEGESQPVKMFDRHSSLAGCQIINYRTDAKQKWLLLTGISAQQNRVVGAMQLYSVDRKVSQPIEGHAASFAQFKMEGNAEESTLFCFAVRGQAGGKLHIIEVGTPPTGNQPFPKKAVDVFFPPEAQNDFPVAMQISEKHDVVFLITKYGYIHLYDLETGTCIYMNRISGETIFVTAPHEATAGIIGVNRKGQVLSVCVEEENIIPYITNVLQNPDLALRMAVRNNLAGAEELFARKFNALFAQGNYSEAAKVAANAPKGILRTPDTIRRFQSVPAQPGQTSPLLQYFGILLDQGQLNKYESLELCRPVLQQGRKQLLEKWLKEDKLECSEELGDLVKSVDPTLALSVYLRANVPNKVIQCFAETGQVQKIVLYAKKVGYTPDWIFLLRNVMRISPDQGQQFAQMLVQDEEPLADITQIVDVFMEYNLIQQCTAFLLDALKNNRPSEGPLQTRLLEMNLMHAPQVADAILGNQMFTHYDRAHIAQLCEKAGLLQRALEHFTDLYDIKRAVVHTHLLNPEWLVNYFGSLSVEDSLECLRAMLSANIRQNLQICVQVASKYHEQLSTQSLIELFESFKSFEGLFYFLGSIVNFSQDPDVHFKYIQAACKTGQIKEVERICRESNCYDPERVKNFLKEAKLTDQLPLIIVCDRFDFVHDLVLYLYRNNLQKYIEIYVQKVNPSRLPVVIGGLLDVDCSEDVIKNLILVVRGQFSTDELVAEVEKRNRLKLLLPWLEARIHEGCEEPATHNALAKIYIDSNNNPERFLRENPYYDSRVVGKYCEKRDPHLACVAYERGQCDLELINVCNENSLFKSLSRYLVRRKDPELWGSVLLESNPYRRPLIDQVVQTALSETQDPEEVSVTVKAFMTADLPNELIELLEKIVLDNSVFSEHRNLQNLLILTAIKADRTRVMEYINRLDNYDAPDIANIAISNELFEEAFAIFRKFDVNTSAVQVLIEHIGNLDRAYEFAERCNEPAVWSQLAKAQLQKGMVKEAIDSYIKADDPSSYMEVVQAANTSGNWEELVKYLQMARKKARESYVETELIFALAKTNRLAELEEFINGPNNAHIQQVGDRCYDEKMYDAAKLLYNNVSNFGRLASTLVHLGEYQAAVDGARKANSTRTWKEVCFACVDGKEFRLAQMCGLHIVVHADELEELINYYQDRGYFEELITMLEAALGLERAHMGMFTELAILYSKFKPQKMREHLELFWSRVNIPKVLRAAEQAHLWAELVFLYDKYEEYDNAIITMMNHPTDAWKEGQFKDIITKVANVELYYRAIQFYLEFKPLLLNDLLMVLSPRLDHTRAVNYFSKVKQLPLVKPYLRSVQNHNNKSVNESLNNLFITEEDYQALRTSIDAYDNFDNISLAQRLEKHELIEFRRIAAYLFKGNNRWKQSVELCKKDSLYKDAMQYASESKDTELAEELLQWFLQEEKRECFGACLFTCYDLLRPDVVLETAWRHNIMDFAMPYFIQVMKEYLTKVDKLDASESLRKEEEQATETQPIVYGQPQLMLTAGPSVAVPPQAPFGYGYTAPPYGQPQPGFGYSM

epsin CLAP domain (from UniProt Q9Y6I3): the dissociation constant (Kd) was 123 µM.
